Assay results from US20210238281A1 (INSTITUT NATIONAL DE LA SANTE ET DE LA RECHERCHE MEDICALE …, published 2021).

Assays:
Assay in all cases: ELISA, IgG aggregated with anti-IgG F(ab')2-HRP on coated FcγR
[1] = molecular target: T1, murine FcγRIV (murine, UniProt A0A0B4J1G0 21-203)
T1 sequence: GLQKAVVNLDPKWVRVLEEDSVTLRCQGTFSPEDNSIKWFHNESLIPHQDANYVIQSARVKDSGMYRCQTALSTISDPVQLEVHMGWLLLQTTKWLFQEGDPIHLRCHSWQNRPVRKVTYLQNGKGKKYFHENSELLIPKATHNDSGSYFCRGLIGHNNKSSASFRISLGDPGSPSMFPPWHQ
Description: (§1) The binding of the 8-18C5-WT and 8-18C5-Del antibodies to human or murine FcγRs was measured by ELISA after incubation, with the F(ab′)2 of goat anti-human IgG HRP for 2 h at room temperature (at a final concentration of 0.5 μg/ml for each molecule) with gentle stirring. The IgGs aggregated to the F(ab′)2 were then incubated with gentle agitation for 1 h at 30° C. on the Maxisorp or NiNTA immunoplates previously coated with the FcγR and saturated with PBS-BSA 4%.

[2] = molecular target: T2, murine FcγRI (murine, UniProt P26151 25-297)
T2 construct: also called FcγRIA; CD64
T2 sequence (looked up): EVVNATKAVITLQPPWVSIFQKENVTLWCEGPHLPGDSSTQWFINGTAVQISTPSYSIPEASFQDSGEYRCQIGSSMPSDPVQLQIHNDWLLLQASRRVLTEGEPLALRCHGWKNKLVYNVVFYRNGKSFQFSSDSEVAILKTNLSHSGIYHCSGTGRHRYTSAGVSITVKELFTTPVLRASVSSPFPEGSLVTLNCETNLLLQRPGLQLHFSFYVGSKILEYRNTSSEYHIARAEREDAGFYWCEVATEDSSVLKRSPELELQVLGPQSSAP
Description: as §1

[3] = molecular target: T3, murine FcγRIIB (murine, UniProt P08101 30-207, limits assumed)
T3 sequence (looked up): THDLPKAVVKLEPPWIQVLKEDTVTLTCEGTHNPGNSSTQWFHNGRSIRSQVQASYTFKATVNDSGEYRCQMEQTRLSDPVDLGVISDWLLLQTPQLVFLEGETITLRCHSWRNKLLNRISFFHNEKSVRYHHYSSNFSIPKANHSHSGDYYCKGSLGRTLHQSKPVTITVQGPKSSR
Description: as §1

[4] = molecular target: T4, murine FcγRIII (murine, UniProt P08508 31-215)
T4 sequence (looked up): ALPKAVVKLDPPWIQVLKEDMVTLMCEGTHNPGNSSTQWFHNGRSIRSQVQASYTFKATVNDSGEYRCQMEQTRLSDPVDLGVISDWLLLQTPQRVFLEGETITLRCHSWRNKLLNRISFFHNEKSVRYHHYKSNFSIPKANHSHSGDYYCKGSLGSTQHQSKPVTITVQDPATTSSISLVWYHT
Description: as §1

B1: recombinant murine monoclonal antibody 8-18C5 (8-18C5-WT) (antibody, mouse IgG1, kappa)
heavy: EVKLHESGAGLVKPGASVEISCKATGYTFSSFWIEWVKQRPGHGLEWIGEILPGRGRTNYNEKFKGKATFTAETSSNTAYMQLSSLTSEDSAVYYCATGNTMVNMPYWGQGTTVTVSSAKTTPPSVYPLAPGSAAQTNSMVTLGCLVKGYFPEPVTVTWNSGSLSSGVHTFPAVLESDLYTLSSSVTVPSSPRPSETVTCNVAHPASSTKVDKKIVPRDCGCKPCICTVPEVSSVFIFPPKPKDVLTITLTPKVTCVVVDISKDDPEVQFSWFVDDVEVHTAQTQPREEQFNSTFRSVSELPIMHQDWLNGKEFKCRVNSAAFPAPIEKTISKTKGRPKAPQVYTIPPPKEQMAKDKVSLTCMITDFFPEDITVEWQWNGQPAENYKNTQPIMNTNGSYFVYSKLNVQKSNWEAGNTFTCSVLHEGLHNHHTEKSLSHSPGK
light: DIELTQSPSSLAVSAGEKVTMSCKSSQSLLNSGNQKNYLAWYQQKPGLPPKLLIYGASTRESGVPDRFTGSGSGTDFTLTISSVQAEDLAVYYCQNDHSYPLTFGAGTKLEIKRADAAPTVSIFPPSSEQLTSGGASVVCFLNNFYPKDINVKWKIDGSERQNGVLNSWTDQDSKDSTYSMSSTLTLTKDEYERHNSYTCEATHKTSTSPIVKSFNRNEC
notes: Murine IgG1 (consensus IGHG1*01 constant domain) produced in HEK or YB2/0 cells; also called mAb 8-18C5; YB2
B1: no binding (tested: 0.5 µg/ml) [1]; no binding (tested: 0.5 µg/ml) [2]; binds [3]. B1: binds [4].

B2: 8-18C5-Del variant of the recombinant murine antibody 8-18C5 (antibody, mouse IgG1, kappa)
heavy: EVKLHESGAGLVKPGASVEISCKATGYTFSSFWIEWVKQRPGHGLEWIGEILPGRGRTNYNEKFKGKATFTAETSSNTAYMQLSSLTSEDSAVYYCATGNTMVNMPYWGQGTTVTVSSAKTTPPSVYPLAPGSAAQTNSMVTLGCLVKGYFPEPVTVTWNSGSLSSGVHTFPAVLESDLYTLSSSVTVPSSPRPSETVTCNVAHPASSTKVDKKIVPRDCGCKPCICTVPEVSSVFIFPPKPKDVLTITLTPKVTCVVVDISKDDPEVQFSWFVDDVEVHTAQTQPREQFNSTFRSVSELPIMHQDWLNGKEFKCRVNSAAFPAPIEKTISKTKGRPKAPQVYTIPPPKEQMAKDKVSLTCMITDFFPEDITVEWQWNGQPAENYKNTQPIMNTNGSYFVYSKLNVQKSNWEAGNTFTCSVLHEGLHNHHTEKSLSHSPGK
light: DIELTQSPSSLAVSAGEKVTMSCKSSQSLLNSGNQKNYLAWYQQKPGLPPKLLIYGASTRESGVPDRFTGSGSGTDFTLTISSVQAEDLAVYYCQNDHSYPLTFGAGTKLEIKRADAAPTVSIFPPSSEQLTSGGASVVCFLNNFYPKDINVKWKIDGSERQNGVLNSWTDQDSKDSTYSMSSTLTLTKDEYERHNSYTCEATHKTSTSPIVKSFNRNEC
modifications: Fc N-glycan highly sialylated (antibody produced in YB2/0 cells); the letters do not carry it.
notes: Murine IgG1, produced in YB2/0 cells; also called m8-18C5-Del
B2: no binding (tested: 0.5 µg/ml) [1]; no binding (tested: 0.5 µg/ml) [2]; no binding (tested: 0.5 µg/ml) [3]. B2: no binding (tested: 0.5 µg/ml) [4].
